“And” between values parts separate entries of the source, which are not always exact repeats. Identical values can stand only once.
Conditions: Homo sapiens; pH 7.5; Thermal; CD; Tris-HCl; KCl; transition: 2; whole UniProt chain shown

B1: Guanylyl cyclase-activating protein 1 wild type, P43080 (protein)
chain: MGNVMEGKSVEELSSTECHQWYKKFMTECPSGQLTLYEFRQFFGLKNLSPSASQYVEQMFETFDFNKDGYIDFMEYVAALSLVLKGKVEQKLRWYFKLYDVDGNGCIDRDELLTIIQAIRAINPCSDTTMTAEEFTDTVFSKIDVNGDGELSLEEFIEGVQKDQMLLDTLTRSLDLTRIVRRLQNGEQDEEGADEAAEAAG
Tm: 50.1 °C and 51.5 °C

— FireProtDB (doi:10.1093/hmg/ddv370)
